Measurements reported in article doi:10.1101/2023.05.22.541692.

Target: AtCYT6-CTD (C-terminal cystatin domain of phytocystatin 6) (UniProt Q8H0X6)
Experiment: Enzyme inhibition kinetics
Conditions: pH 5.5; 25 °C; 100 mM NaCl; 20 mM citric acid pH 5.5

Chain of UniProt Q8H0X6 (Q8H0X6 whole entry, the tested form may be a part): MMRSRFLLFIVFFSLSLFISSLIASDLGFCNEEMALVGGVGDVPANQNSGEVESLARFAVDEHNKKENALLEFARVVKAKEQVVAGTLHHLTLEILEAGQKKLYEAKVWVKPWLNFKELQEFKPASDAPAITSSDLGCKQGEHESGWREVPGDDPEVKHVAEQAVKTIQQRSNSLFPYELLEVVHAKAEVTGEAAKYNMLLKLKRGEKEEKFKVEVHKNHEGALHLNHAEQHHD

Ki: 0.61 ± 0.23 nM
Substance: AtLEGβ (legumain isoform β, vacuolar processing enzyme β), activated catalytic domain
